The nanobody polyreactivity screen of Harvey et al. (2022)

Experiment: yeast display, Sf9 membrane polyspecificity reagent, FACS + sequencing; frameworks hold sequencing errors
How it was run: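 Galactose induction of a Saccharomyces cerevisiae BJ5465 synthetic nanobody display library ran 36–48 hours. The cells were then stained for 1 hour at 4 °C with 10% biotinylated, detergent-solubilized Sf9 membrane reagent, pulled down on streptavidin microbeads and FACS-sorted into low and high (top ~1%) gates on expression and reagent-binding fluorescence. Labels for polyreactivity follow the gate of origin.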

Sequence | polyreactivity (PSR sort gate)
QVQLVESGGGLVQAGGSLRLSCAASGSIFKRYAMGWYRQAPGKERELVAAISWSGGNTYYADSVKGRFTISRDNAKNTVYLQMNSLKPEDTAVYYCAALHRVGYSEYGYWGQGTQVTVSS | high polyreactivity
QVQLVESGGGLVQAGGSLRLTCAASGSTFTGYAMGWSIQAPGKERELVAGITGSGGSTYYADSVKGRFTISRDNAKNTVYLQMNSLKPEDTAVYYCNAVHWGGTYWGLDYWGQGTQVTVSS | low polyreactivity
QFQLLESGGGLVQAGGSLRLSCAASGFISDVYAMGWYRQAPGKERELDAVITWRGSTYYADSVKGSFTISRDNAKNTVYLQMNSLKPEDTALYYCAAESQGDWAFDYWGQGTQVTVSS | low polyreactivity
QVQLVESGGGLVQAGGSLRLSCAASGLTIWRYAMGWYIQAPGKERDLLAAISRSGIRTYYADSVKGRFTISRDTAKITVYLQMNSLKPEDTAVYYCAADSNAYITGRDYWGQVTQVTVSS | high polyreactivity
QVQLVDSGGGLVQAGGRLRLSCAPSGSIIIDNAMGWYRQAPGKERELVAAISSSGGSTHYADSVKGRFTISRDNAKNTVYLQMNSLKPEDTAVYYCAAKRGWRGGYYWGQGTQVTVSS | high polyreactivity
QVQHVESGGGLVQAGGSLRLSCAASGFTLFWNDMGWYRQAPGKERELVAAITSGDDTYADSVKGRFTISRDNAKNTVYLQMNSLKPEDTAVYYCNKDDPLRNVAQVILYEFYYWGQGTQVTVSS | low polyreactivity
QVQLVESGGGLVQAGGSLRLSCAASGITFYDNVMGWYIQAPGKERELVAAITSGGSTNYADSVKGRFTISRDNAKNTVYLQMNSLKPEDTAVYYCAAQPRVDYEFPYRYGYWGQGTQVTVSS | low polyreactivity
QVQLVESGGGLVQAGGSLRLSCAASGSIFDVYAMGWYRQAPGQERELVAAISRGDSTNYADSVKGRFTISRDNAKNTVYLQMNSLKPEDTAVYYCAADCYYWGSGWRYDSWGQGTQVTVSS | low polyreactivity
QVQLVESGGGLVQARGSLRLSCAASGRTFFENAMGWYRQAPGKERELVATITTTGGSTYYADSVKGRFTISRDNAKNTVYLQMNSLKPEYTAVYYCATRGWYLGSRGYRNRYGYWGQGTQVTVSS | high polyreactivity
QDQLVESGGGLVQAGGSLSLSCAASGRIYRYYAMGWSRQAPGKERELVADISSGDSTYYADSVKGRFTMSRDNAKNTVYLQMNSLKPEDTAVYNCNADVYSWVSGKEGDYWGQGTQVTVSS | low polyreactivity
QVQLVESGGGLVHAGGSLRLSCAASGSTFKGYAMGWYRQAPGKERELVASIRSSSGSTYYADSVKGRFTISRDNAKNTVYLQMNSLKPEDTAVYYCATALWVRYYGQGGYIRRYDYWGQGTHVTVSS | high polyreactivity
QVQLVESGGGLVQAGGSLRLSCAASGRIFGTYAMGWYRQAPGKERELVASISYSDGSTYADSVKGRFTISRDNAKNTVYLQMNSLKPEDTAVYYCAADVYYYAQSEDGYWGQGTQVTVSS | low polyreactivity
QVKLVESGGGLVQAGGSLRLSCAASGSTVVFNTMGWYRQAPGKERELVAAISTGDSTKYADSVKGRFTISRDNAKITVYLQMNSLKPVDTAVDYCAADTQDRTYYGWRQVGGYDYWGQGTQVTVSS | low polyreactivity
QVQLVESGGGLVQAGGSLRLSCAASGRIFYGYAMGWYRQAPGKERELVAAITVSGGDTYYADSVKGRFTISRDNAKNTVYLQMNSLKPEDTAVYYCAAKADKRLDYWGQGTQVTVSS | low polyreactivity
QVQLVESGGGLVQAGGSLRLSCAASGLIIPKYAMGWYRQAPGKEREFVAAISGRGGTTYYADSVKGRFTISRDNAKNTVYLQMYSLKPEDTAVYYCAAGGPWANIYGNGYWGQGTQVTVSS | high polyreactivity
QVQLVESGGGLVQAGGSLRLSCAASGRNSSWNAMGWYRPAPGKERELVAAISVRGGSTYADSVKGRFTISRDNAKNTVSLQMNSLTPADTAVYYCAKTYYPYRLGEGQYEYDYWGQGTQVTVSS | low polyreactivity
QVQLVESGGGLDQAGGSLRLTCAATGRIILGYAMGWYRQAPGKEREFVAANSRGGTSTYYADSVKGRFTISRDNAKNTVYLQMNSLKPEDTAVYYCAVDVPPYRLVRNYYEYDYWGQGTQVTVSS | high polyreactivity
QVQLVESGGGLVQAGGSLRLSCAASGFTFYGNAMGWYRQAPGKERELVAAISSRVGRTYYADSVKGRFTISRDNAKNTVYLQMNSLKPEDTAVYYCAKAPYGVRRGLYDYWGQGTQVTVSS | high polyreactivity
QVQLVESGGGLVQAGGSLRLSCAASGSTFSIYAMGWYRQAPGKERELVAAISFSDASTYYADSVKGRFTISRDNAKNTVYLQMNSLKPEDTAVYYCAAVVGAFKRRFYYWGQGTQVTVSS | high polyreactivity
QVHLVESGGGLVQAGGSLRLSCAASGIFSRYAMRWYRQAPGKERELVDAISSGDSTNYADSVKGRFTISRDNAKNTVYLQMNSLKPEDTAVYYCATERSHLASGQGYYYVQTFYYWGQGTKVTVSS | low polyreactivity
QVQLVESGGGLVQAGGSLRLSCAASGYTFIVNAMGWYRQAPGKERELVAAISRSGSSTRYADSVKWRFTISRDNAKNTVYLQMNSLKPEDTAVYYCGADLYSSEGRYYYWGQGTQVTVST | high polyreactivity
QVQLVESGGGLVQAGGSLRLSCAASGRIFPQYAMGWYRQAPGKERELVAAISVSGTRTYYADSVKGRFTISRDNAKNTVYLQMNSLKPEDTAVYYCNTLGKYDGFYYWGQGTQVTVSS | high polyreactivity

Sequence | polyreactivity (PSR sort gate)
QVQLVESGGGLVQAGGSLRLSCAASGITFYEYAMGWYRQAPGKERELVASISGSGGSTFYADSVKGRFTISRDNAKNTVYLQMNSLKPEDTAVYYCAAYKEPYYEEYGYWGQGTQVTVSS | low polyreactivity
HVQLVESGGVLVQAGGSLRLSCAASGRIFRQNTMGWYRQAPGKEREIDATISWRGTRTNYADSVKGRFTISRDNAKNTVYLQMNSLKPEDTAVYYCNAQSWAYTLRTSLYDYWGQGTQVTVSS | high polyreactivity
QVQLVESGGGLVQAGGSLRLSCAPSGSTFYIYAMGWYRQAPGKERELVAAISTTDGTTYYADSVKGRFTISRDNAKNTVYLQMNSLKPEDTAVYYCAAEWFGSVQPAYDYWGQGTQVTVSS | high polyreactivity
QVQLVESGGGLVQAGGSLRLSCAASGRNFGIYAMGWYRQAPGKERELVARITGGGSTNYADSVKGRFTISRDNAKNTVYLQMNSLKPEDTAVYYCAATVRRIVGNITRYDYWGQGTQVTVSS | low polyreactivity
QVHLVESGGGLVQAGGSLRLSCAASGRIYYRYAMGWYRTAPGKERELVAAISASGRTYYADSVKGRFTISRDNAKNTVYLQMNSLKTEDTAVYYCAKVAAGSLGSWGQGTQVTLSS | high polyreactivity
QVQLVESGGGLVQAGGSLRLSCAASGGTFRYYAMAWYRQAPGKERELVARIRYNGGSTYYADSVKGRFTISRDNAQYTVYLQMNSLKPEDTAVYYCAGRRTGGMGYWGQGTQVTVSS | high polyreactivity
QVQHVESGGGLVQAGGSLRLSCAASGFTFNYYAMGWYRQAPGKERELVAAITSSGGSTYYADSVKGRFTISRDNAKNTVYLQMNSLKPEDTAVYYCNAAVYAHRYIDGFDYWGQGTQVTVSS | high polyreactivity
QVHLVESGGGLVQAGGSLRLSCAASGFIFTYYTMGWYRQAPGKERELVAAISRSGARTYYADSVKGRFTISRDNAKNTVYLQMNSLKPEDTAVYYCNTDISYGYYPVGYDYWGQGTQVTVSS | high polyreactivity
QVQLVESGGGLVQAGGSLRLSCAASGSIFLSYAMGWYRQAPGKERELVAAISRRGVRTYYADSVKGRFTISRDNAKNTVYLQMNSLKPEDTAVYYCAKDAYFPPWTYGSIFGLYDYWGQGTQVTVSS | low polyreactivity
QVQLVESGGGLVQAGGRLRLSCAASGRTFATNTMGWYIQAPGKEREFVAAISRGGVSTSYADSVKGRFTISRDNAKNTVYLQMNSLKPEDTAVYYCAANHYGFNRNHRHTYVYWGQGTQVTVSS | high polyreactivity
QVQLVESGGGLVQAGGSLRLSCAASGFTFSRNDMGWYRQAPGKERELVASITTSGGGTYYADSVKGRFTISRDKAKNTVYLQMNSLKPEDTAVYYCAAEYYSIRYGPHSIEVYGMDYWGQGTQVTVSS | low polyreactivity
QLQLVESGGGLVQAGGSLRLSCAASGSTFVLYAKGWYRQAPGKERELVAAITWSGDDTYYADSVKGRFTISRDNEKNTVYLQMTSLKPEDTAVYSCAADGRGDLYVWPGIGGDYWGQGTQVTVSS | low polyreactivity
QVQLVESGGGLLQAGGSLRLSCAASGFTFATYAMGWYRQAPGKERELVAAISTSGGSTYYADSVKGRFTISRDNAKNTVYLQMNSLKPEDTAVYYCNAVSRSYRYAGVPGFHYDYWGQGTQVTVSS | high polyreactivity
QVQLVESGGGLVQAGGSLRLSCAASGTFYRYAMGWYRQAPGKERELVAAIDKTGDTTYYADSVKGRFTISRDNAKNTVYLQMNSLKPEDTAVYYCAATGYPRFGYWGQGTQVTVSS | high polyreactivity
QVQLVESGGGLVQAGGSLRLSCAASGFIFDDNTMGWYRQAPGKERELVAAISYSAGSTYYADSVKGRFTISRDNAKNTVYLQMNSLKPEDTAVYYCNKDAASWDYYGGNDYWGQGTQVTVSS | low polyreactivity
QVQLVDSVGGLVQAGGSLRLSCAASGRIFRYYAMGWYRQAPRKERELVAAITWSGGSTYYADSVKGRFTISRDNAKNTVYLQMNSLKPEDTAVYYCNADSVYAGFDYWGQGTQVTVSS | low polyreactivity
QVQLVESGGGLVQAGGSLRLSCAASGSTFLLYAMGWYRQEPGKERELVAAITWSGASTYYADSVKGRFTISRDNAKNTVYLQMNSLKPEDTAVYYCATRYRYRYWGQGTQVTVSS | high polyreactivity
QVQLVESGGGLVQAGGSLRLSCAASGFTFYAYAMGWYGQAPGKERELVAAITGRGGSTYYADSVKGRFTISRDNAKNTVYLQMNSLKPEDTAVYYCNKVKKSDKFNNFSNDYWGQGTQVTVSS | high polyreactivity
QVQLGESGGGLVQAGVSLRLSCAASGNTFYWNAMGWYRQAPGKERELVAAISTTGVSTYYADSVKGRFTISRDNAKNTVYLQMNSLKPEDTAVYYCAVDPPYSNPITINEDYWGQGTQVTVSS | low polyreactivity
QVQLVESGGGLVQAGGSLRLSCAASGRTFKYYAKGWYRQAPGKERELVAAINSGGITYYADTVKGRFTISRDNEKNTVYLQRNSLKAEDTAVYYCAKVWKIGVLRYPSYGYYYWGQGTQVTVSS | high polyreactivity
QVQLVESGGGLVQAGGSLRLSCAASGRIFRRNAMGWSRQAPGNERELVAAISSSGGRTYYADSVKGRFTISRDNAKNTVYLEMNSLKPEDTAVYYCAARIRTVAHVDYDYWGQGTQVTVSS | high polyreactivity
